Consider 2 molecules from PMC7703929, “Unraveling the mechanism of recognition of the 3’ splice site of the adenovirus major late promoter intron by the alternative splicing factor PUF60”.

One data set addresses PUF60 RRMs (human, UniProt Q9UHX1 118-316, C129S;C255A). The experiment in a line: fluorescence anisotropy; Kd1, two-site sequential model; FA: 50 mM Tris-HCl, 150 mM NaCl, 20 uM EDTA, pH 8.0, room temperature, 10 nM probe; EMSA: same buffer, 5 uM RNA, 5.5% native gel in 0.5X TBE at 4 C; crystals: 0.1 M Tris-HCl pH 8.7, 25% PEG 4000, 5-10 mM BaCl2, 20 C. Conditions: protein: recombinant; tags: His tag removed by TEV; chain copies: 2; label: 5'-fluorescein.

For data set [1], the target named is T1, PUF60 RRMs+UHM (human, UniProt Q9UHX1 118-559, C129S;C255A;C487A). Described as above. Conditions: protein: recombinant; tags: His tag removed by TEV; N-terminal GRGS left; chain copies: 2; label: 5'-fluorescein.
The next data set has as its target T2, SF1 1-260 (human, UniProt Q15637 1-260, C171A).
T2 sequence: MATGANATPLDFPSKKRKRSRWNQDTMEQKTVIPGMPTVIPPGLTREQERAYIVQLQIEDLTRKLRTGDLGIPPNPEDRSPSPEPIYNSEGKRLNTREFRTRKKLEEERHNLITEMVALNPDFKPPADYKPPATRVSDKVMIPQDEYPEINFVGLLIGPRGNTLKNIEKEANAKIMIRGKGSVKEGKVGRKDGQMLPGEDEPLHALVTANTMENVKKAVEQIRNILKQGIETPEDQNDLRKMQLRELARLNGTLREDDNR
The experiment in a line: EMSA; SF1 up to 40 uM, RNA 5 uM; FA: 50 mM Tris-HCl, 150 mM NaCl, 20 uM EDTA, pH 8.0, room temperature, 10 nM probe; EMSA: same buffer, 5 uM RNA, 5.5% native gel in 0.5X TBE at 4 C; crystals: 0.1 M Tris-HCl pH 8.7, 25% PEG 4000, 5-10 mM BaCl2, 20 C. As to conditions: protein: recombinant; tags: His tag removed by TEV; N-terminal G left. For orientation: In EMSA bound probe runs differently from free probe, usually more slowly.

Data set [2] has as its target T1, PUF60 RRMs+UHM. The experiment in a line: EMSA; two conformations at 20 uM PUF60; RNA 5 uM; FA: 50 mM Tris-HCl, 150 mM NaCl, 20 uM EDTA, pH 8.0, room temperature, 10 nM probe; EMSA: same buffer, 5 uM RNA, 5.5% native gel in 0.5X TBE at 4 C; crystals: 0.1 M Tris-HCl pH 8.7, 25% PEG 4000, 5-10 mM BaCl2, 20 C. As to conditions: protein: recombinant; tags: His tag removed by TEV; N-terminal GRGS left; chain copies: 2.

The target of a further data set is PUF60 RRMs+UHM;SF1 1-260 (human;human, UniProt Q9UHX1;Q15637 118-559;1-260, C129S;C255A;C487A|C171A). The experiment in a line: EMSA; further upward shift with both proteins, suggests ternary complex; FA: 50 mM Tris-HCl, 150 mM NaCl, 20 uM EDTA, pH 8.0, room temperature, 10 nM probe; EMSA: same buffer, 5 uM RNA, 5.5% native gel in 0.5X TBE at 4 C; crystals: 0.1 M Tris-HCl pH 8.7, 25% PEG 4000, 5-10 mM BaCl2, 20 C. As to conditions: protein: recombinant;recombinant; tags: His tag removed by TEV; N-terminal GRGS left;His tag removed by TEV; N-terminal G left; chain copies: 2;1.
Sequence of PUF60 RRMs+UHM;SF1 1-260 (Q9UHX1 118-559 C129S/C255A/C487A, one chain of several): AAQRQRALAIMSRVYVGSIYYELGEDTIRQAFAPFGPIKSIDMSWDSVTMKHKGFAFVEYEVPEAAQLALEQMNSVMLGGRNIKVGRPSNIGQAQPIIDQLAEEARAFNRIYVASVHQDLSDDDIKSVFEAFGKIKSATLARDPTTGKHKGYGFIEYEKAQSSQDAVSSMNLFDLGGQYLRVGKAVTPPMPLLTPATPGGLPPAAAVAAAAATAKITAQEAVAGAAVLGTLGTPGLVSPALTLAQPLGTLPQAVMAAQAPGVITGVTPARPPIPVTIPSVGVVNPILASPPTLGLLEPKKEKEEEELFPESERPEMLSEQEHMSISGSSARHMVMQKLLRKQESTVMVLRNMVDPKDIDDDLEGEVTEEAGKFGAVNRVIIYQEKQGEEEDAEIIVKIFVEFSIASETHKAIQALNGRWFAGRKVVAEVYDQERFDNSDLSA

T1 sequence (Q9UHX1 118-559 C129S/C255A/C487A): as the sequence (Q9UHX1 118-559 C129S/C255A/C487A, one chain of several) above
Sequence of PUF60 RRMs (Q9UHX1 118-316 C129S/C255A): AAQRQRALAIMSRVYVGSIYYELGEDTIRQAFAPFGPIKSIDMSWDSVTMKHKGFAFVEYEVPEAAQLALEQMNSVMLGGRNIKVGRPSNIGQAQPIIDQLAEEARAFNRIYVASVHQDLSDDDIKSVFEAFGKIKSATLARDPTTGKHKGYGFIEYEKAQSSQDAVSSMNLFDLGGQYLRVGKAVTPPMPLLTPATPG

As for GAUGUCAUACUUAUCCUGUCCCUUUUUUUU (ssDNA, deoxyribose backbone with A, U, C, G bases (dU)) [*AdML3'], the Kd (in general, the equilibrium constant for the complex coming apart) with PUF60 RRMs stood at 3.64 ± 3.6 µM; with PUF60 RRMs+UHM [1], 4.61 ± 1.19 µM.
Consider GAUGUCAUACUUAUCCUGUCCCUUUUUUUU (ssRNA) [AdML3' RNA], for which the binding result with SF1 1-260, in the data set with PUF60 RRMs+UHM [2] and with PUF60 RRMs+UHM;SF1 1-260 was “binds” in each case.
